Laboratory results published in the DeepSol protein solubility set.

Assay: soluble on expression in E. coli; label from the status in PepcDB or PDB records

Soluble on expression in E. coli, not soluble:
MGSDKIHHHHHHMLLEIRHVTQYHYERPVRESLMELWMQPQKTARQRLVSFELDLNPAAQVFSYADSFGNAVYHFDVPQPHDNLTIIARSAVETESPGERPDQLDMGEWDRLRSEFVRGECFDFLRPHGFVRTTEALQTFINEHDLDALKRRDPLTAVRSLSETIYGAFEYQPGVTDADSPIDLTLSAGRGVCQDFAHIMLAVCRGWGVPARYVSGYLFTDRDAGDRSDPDATHAWVEVFLPSLRWVGFDPTNNMMAGERHVAVAVGRDYADVTPSRGVYKGDAESQLAVGVSVRRARAALAEPEFLRMARPSFAGGRRRHDTALREELHQQQQQQQ
MLCRNTARTGCKFFRLYHSNPIEHVKPIHIKPLTYGKESPQYKVLSLALQKFVPEHGFSERSIVESLNELGYPSSMISSIGAPNSPSFFHSSTAVMELIKFQLVDKRYRLTEGINPDVTPQYKLPSLEHLLLKRLEMDKPIGGHLSELMSQLAIPSAFLFETAIPELHRLSDDMIYFSNEKDHHDSAWYAKRLAVSSTYIGSKLFMAQDKSHNYKETFTFAKDKLHRVMRLGEYYNNTEEFAWYTLMSTVNLIKSQLVRG
MKVLEYRFAIAPMFHFIANKSMEAGLHVCDGHAKQTVQLFMNDAVSEKGKKRIGAIQYEGSNDYTAKEPCMVNWRFERALLPDGLKQDLEAITAFRRDQNEGTAINPNAQSIAFKFEALTDAAKETIEAITAVLQKHARC
MGSDKIHHHHHHMSKIDELVFTPKQQDTITFPFQNVTLEVNEGTPRSGKTTADIFKMAYIYSISEDQNHLVTAYNQEQAFRLFMDGDGFGLMHIFGNLAEMKHDEHGDHLLIHSPNGPKKIYYKGGGKINSVGAITGMSLGTVTFLEINLLHKDFIEECFRRTFAAKNRFHLAELNPPAPNHPVLEIFSQYEKSGRYKWRHWTAKDNPALSDERKQEIYNEVKHSAYLLQRDWYGKRVLPAGIIYETFDVEANQIKKMQGHPIEMVFFGDGGQQDATVCECYVITEHEAEGGYTYNLNQVATYYHSGRDTGQVKAGSTYAIEIKQFIQWCMKEYEVPVNEPVFIDPACRWLREELEKVGVDTAGADNNAHDVTGKAQGIEVGIERMQSLLSERRYLLVEQPNDQYDHYSWLQEIGMYVRDENSGKPVDKNNHAMDTSRYATNYFYRNYEDI
MGSDKIHHHHHHMAATFKMVGVIRFSLLTPTFNADRYPDLEAAAAAIFAPDRMALRLHLFETLCLPSLVRQSDAAFHLVVATSDRLPAVILQHLQALLAPHDHMQLIQFAPENHYQILKEAYRAVPQQGESHRILFRLDDDDALDRHYVARCKRLAAGLVPLQTEAVSPIALAFNRGYYLIREEGQPPVVMDSCERAPLSAGTALVQPIAARGNPYRYNHRKFAQHYTLYSDISVPSFVRTVHGDNHSTPAMMGLTARQSDAEMDADLQRHFDLSLSDLKAI
MGSDKIHHHHHHMTSAANLVRITQPAISRLIRDLEEEIGISLFERTGNRLRPTREAGILFKEVSRHFNGIQHIDKVAAELKKSHMGSLRVACYTAPALSFMSGVIQTFIADRPDVSVYLDTVPSQTVLELVSLQHYDLGISILAGDYPGLTTEPVPSFRAVCLLPPGHRLEDKETVHATDLEGESLICLSPVSLLRMQTDAALDSCGVHCNRRIESSLALNLCDLVSRGMGVGIVDPFTADYYSANPVIQRSFDPVVPYHFAIVLPTDSPPPRLVSEFRAALLDALKALPYETI
MGSDKIHHHHHHMTTRILICDDSALARKQMAKALPPGLADDILFAGDGKEALTILRDQKAELLFLDLNMPELDGYQVLEHIRSEDLPVLTIVVSGDIQPEARERVRKLGAIDFIKKPTDTGVVSRLLKEYGFYRPSELEDTALNDASLHSREAAAPEISVSLSDYLQEISNVAMGRSSDLLARLLKVFVKQPIPKVAFIANSELHMAISAAQRAENYSAVCQGFTGAGIAGEALLLFEDASFREMAELLHYDVLEGESVNVEVLMDMSSILFGAFINGIGDQLDLKLGLGHPTVLGQHRPVNELLDHHSKREEQLLCIEISYALENRDIRCNMLILLTEDSIPFLEKRLAYLVD
MAHHHHHHMNLDEFNELVEQRNRIEREIQENVNFLEAPENKGVGLHGKLVDEEGFPRNDIDIYSIRVARNKVICLKNDYLNVSKRIEEYLHKVHTSHPVIRVQRSKAKKEEGDDPNESPPESCTQDYDESAPGYELLIEEAKRSTFAMIDELVENSPSHKAGLRINDYIIQFGDVQKKKKKNEENEKEDADIFNRIAAYMRNNPTRIKVKILREGKIFFYFVFPNRTPNGLYIGCHLTPISVGGGSV
MEIFLSDPISAECPCGPDLEYDPEYLLLFTRAAPREEAQYGDFVSTPENINWAELERDAHRLLMRSKDIRILVVLLRCRIQQAGARGLSEALTLLETLCSTYPDAIHPQLLATEDITAEDAAVARSNALAALLDHEGVMADIRGITLSNNAAMRLQVRDVERSLSALRPADALAPESVRQQLADLEARGTLPLDAFRQAAETTERLQRHARETLNDQAPDFSRLTQLLALLPGAVQSTTPEILPQPQAEQPENATIVHTEQMQAEQIALPVHIAEEISPMTGAEPRQIRDRNDALERLRVIRRWFEHSEPSSPTIPLLRQAERLVGKRVSEVINEIPVELLEKWDALE
MGSDKIHHHHHHMRKMKNNDKSVITVDLNDPVKSLEYLEEAFQIGTFILKNSPVNFKRLAKVLSDLDTFYNLDFKTKIDISGQISGGGATRGYFPLGVESGLVDVFEKKESYSFGWPDNEIPDSDASNLSLVAPNIYPDHGYINPDDINGLIKDFANAAKKLSRLIEIILFNGKTVLPIDESSDFQSLLRSFRYYKKTEFDPPNTGANSLHTDWNLITLVYADADGYQYRDNEGNFQNIIPEMEDCLIVNFGDFLSAWTGGKIVSPWHQVVEAKKKDVRNSLVFFYYPAASSSAVKNPIYNQGEPLSLFVDQSDPLNRLWDFSKIETMNEMYAGKWKQVSRK
MGSDKIHHHHHHVVLDTDLASIQESRNLVQKAKEAQLHLAHFNEQQIDKILASIVAAVEENAEGLARMACQETEYGIVEHKIAKNLFAARDVYESTKHIKTIGTISEDPDRKVIRYAAPMGVLVGITPRTNPTSTIIHNALCAIKGANAIVFSPHPFAVQCGCATASLINEAAVKAGAPDGVCSCLSMTSLQASHELMHHPDVAAIIATGGPGLVKSAYSAGKPAFGVGSGNVPVFIERSADIKQAVNDIMVSKTFDNGMICASEQAILADQPIKDEVIKELQNQGAYFLSPEEVQKVGRVVIHANGSMNNALVGQSPAVIAQRAGISIPADTALLIAPMEGYGKDYPLSHEKLTTVLGFYVVQDWKEACHLSIELLKLGGIGHSCAIHSQNEQVIREFLAKPVFRIIVNTPSALGGIGQTTGIMPSLTLGCGTWGGSSISENLGPQHLINIKHLTYGLKKVAFHKVPATQGNVSPLLPPTKATSWDIKSDDIDDVVKQVLQQLKIG
MQGFELEDLTLWLIRDAGEDQMWIDRWAISYPVVQMSEASAGQSIGEWQAGLQTAFERIRGKYVAVVAHGAGAAAFLAWLYQADILTRKKIANIILVPQRPDIFPDDAEHAFQRVRCPCRAALVVPEHGGVPHGWAQKQADLWNARLLVSPHSGSLNGMLGGWQWGMKLMQEMLLA
MGSDKIHHHHHHMKSPTPALMLQGTSSNAGKSILTAAFCRILLQDGYRVAPFKAQNMALNSHVTADGLELGRAQAVQAAACRLDVDVRMNPVLLKPNSDTGSQVVVMGRPVGNMRVREYMAYKPVAFDAARAAYDSLAADVDVMVLEGAGSPAEVNLKAHDIVNMAMARHAEAKVLLVGDIDRGGVFASLVGTMELLDPWERDLVAGFVLNKFRGDATLLSPAYDVVTGRTGKPFLGVVPWLHDLGLPDEDSVSFRETLAGRAPDVPAGGGMLDIVLVDLPHISNFTDLDALRREPDVAVRVVRSPEQLGSPDAIILPGSKNTLGDLAALRSRGMAEALCALRSAEGGHLGPVIVGICGGFQMMGRFLADPQGVESDHACTEAGLGLLPVTTEMGSAKVLRRTSAKTVSGWCGAGVAAGLMPGTGGGHGGAEVCPGEGYAVHGYEIHHGVTTPDAGGGAVLVCLHESDGSPAGWTTPDGQVWGTYLHGVFDADGFRRGWLDALRVRRGLEPVGRVVARYDLDPALDRLADVVREAVDMGHIYSVLGLSPKGRRQT
MELTKIRVKTIGYYHRDSEMKATPGRLPKNLNLACLTPMQNKEKFPNMNIEVLDSGKGELMMESLLDYISQTSCLQDEQPGFVTNKQLLVALTRTGSLAIHLFRWNGTTYLLKFNEDESVNQNFGAAFEHHCTKTDDPINENEPVRKAVMIAEIPRGKGVHSVLYSGQIDAVDNEVNRMHYELKVLSGGLTEHFWKTKSCMFYWQAVFGKADVLIIGSRTGKCPNDPKTTWPKEWPPFSVYQVETLEQNQIPESAAEECLKKVLMDPAPEWKPLEGEESVCYFLDLVEEYVKNNGDCYVFTRSDENPDWIVKEDEESVAEFRDVVRHYLAS

Soluble on expression in E. coli, soluble:
MSYGLIIVLMIILGIGLWHTKKYHRAVVNQVAHVWITKNAFEHTALGMAIVSPDCRFLKVNRAYGEITGYTRPELLKMAVKELTHPEDQEKDTPYLQEVFAGNIHSFTTVKRYIHKNGSTIWVRSTISAVRTERGNLEHHHHHH
RIPVKYGNADGEYCKFPFLFNGKEYNSCTDTGRSDGFLWCSTTYNFEKDGKYGFCPHEALFTM
MAHHHHHHSLIDGLLITELNKLTPGSSYIFLDYDGTLVPIIMNPEQSLADPELIEMLTELRSKYKLFIVSGRSPEEIKRFIPLDLNLICYHGACSIVNGKTYYYNNAQSFLGIFNEIYQSSLNLVNEFPGLRIYKKNLAVLYHFGLMKPQDVPALERVIVEISQKEHVDVYKGKMIFELRVPGVNKGIAIKNVRDEETALIAGDDATDECSFKYNEDAITIKVGPGKTSAHFRVNDYSEMREVLKLLLNNAEKRSEG
MKVDVDEKTYIITMANDITKLYEENKRNLHYSITDPLTGAYNRKYLNDRFDIFIGDYIVLIDLDNFKMINDYEGHNVGDKILCDFVSLLNKELINSTSIIRLGGDEFIVIFSSDVDKNYVYSQLEALRENFLKVFSKYKYLSFSYGVDTVKRNLKLTIVELDKKMYKNKEKNKKKFDKNLEHHHHHH
MSLKGENMRVAGLKTDKQGVIFDMDGLLVNSEELYWQANIQAAREYKLGISDDAYLDLVGASVKAMDAFYEKYFPSDEVRQAFVKRTDDLVWEWTDQGKLKLKAGVKEALEYFNDLGLTVGIASNNYKSVVDHNLWVTGCRNSFDFIVTHDEVAEKKLRSKPFPDLYLAAQERSGLGKDQLLIFEDSSMGVEAAENAGIDCVMIPDIKPASAEDRARAQLICPDFFDFLKKISEGHHHHHH
MSLAIPRQKMPAQDPVERVGNFKEVNLGLTPEQAQQEALRCIQCKDPVCIAGCPVNIKIDQFIKLIAEGDFMGAVRKIKEDNVLPSICGRVCPQEDQCEKVCVIGKKHEPVAIGNLERFVGDYERTSGQKIDPKIAPPTGKKVAVVGSGPAGLSCANDLAQYGHKVVVFEALHELGGVLMYGIPEFRLPKEIVREELDGLRRMGIEFRTDVVVGRTITIDELMEEEGFDAVFIGVGAGLPWFMGIPGENLVGVLAANEFLTRVNLMKAYDFLKSSDTPVFDCKGKNVAVFGGGNTAMDAVRTAKRLGAEHAYIVYRRSEKEMPAREEEIHNAKEEGIEFLLLTTPLEFVGDEKAWLTGAKCQKMELGEPDDSGRRRPVPVEGSEYILPIDMAIISIGNGPNPLIHQTTPDIEVSKRETIVVDVNTMQTSKENVYAGGDIVTGGATVILAMGAGRKAAAAINEKLGGTAKNEGHHHHHH
GTLDTTWKEATLPQVKAMLEKDTGKVSGDTVTYSGKTVHVVAAAVLPGFPFPSFEVHDKKNPTLEIPAGATVDVTFINTNKGFGHSFDITKKGPPYAVMPVIDPIVAGTGFSPVPKDGKFGYTNFTWHPTAGTYYYVCQIPGHAATGQFGKIVVK
